According to the nanobody polyreactivity screen of Harvey et al. (2022):

Assay: yeast display, Sf9 membrane polyspecificity reagent, FACS + sequencing; frameworks hold sequencing errors
In short: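 Synthetic nanobody libraries on Saccharomyces cerevisiae BJ5465 were galactose-induced for 36–48 hours, stained 1 hour at 4 °C with 10% biotinylated, detergent-solubilized Sf9 membrane reagent and enriched on streptavidin microbeads. FACS then separated cells into low and high (top ~1%) gates by anti-HA (expression) and streptavidin (reagent binding) fluorescence. Genes were colony-PCR amplified, MiSeq 2 × 250 sequenced and CDR-length filtered. A clone's polyreactivity label is that of its gate of origin.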

Sequence | polyreactivity (PSR sort gate)
QVQHVESGGGLVQAGGSLRLSCAASGRIFGTYAMGWYRPAPGKERELVAAISWRGGSTYYADSVKGRFTISRDNAKNTVYLQMNSLKPEDTAVYYCAATWWSPSRGTKGDYWGQGTQVTVSS | low polyreactivity
QVQLVESGGGLVQAGGSLRLSCAASGFIFTTYDMGWYRQAPGKEMELVAAITGSGGRTYYADSVKGRFTISRDNAKNTVYLQMNSLKPEDTAVYYCAARWGNVRFRYGYWGQGTQVTVSS | high polyreactivity
QVQLQESGGGLVQAGGSMRLSCAASGSISELRPMGWYRQAPGKERELVAGISTGGSTNYADSVKGRFTISRDNAKNTVYLQMNSLKPEDTAVYYCAAALSNVRNVRSPYDYWGQGTQVTVSS | high polyreactivity
QVQLVESGGGLVQAGGSLRLSCAASGFNIGRNAMGWYRQAPGKERELVAGISISGGSTYYADSVKGRFTISRDNAKNTVYLQMNSLKPEDTAVYYCAAEYAYSLDPEEDYWGQGTQVTVSS | high polyreactivity
QVQLVESGGGLVQAGGILRLSCAASGRTFSSNAMGWYRQAPGKERELVAVISSGGSTYYADSVNGRFTISRDNAKNTVYLQLNSLKPEDTAVYYCAAAGGPSGYYYESDYWGQGTQVTVSS | high polyreactivity
QVQLVESGGGLVQAGGSLRLSCAASGRIFLINAMGWYRQAPGKERELVAAITVSGTRTYYADSVKGRFTISRDNAKNNVYLQMNSLKPEDTAVYYCAAKLQYRWTCGYYYWGQGTQVTVSS | high polyreactivity
QVQLVESGGGLVQAGGSLRLSCAASGFTFGYYAMGWYRQAPGKERELVAAISKRGGSTYYADSVKGRFTISRDNAKNTVYLQMNSLKPEDTAVYYCATRYTGYPFYGYDYWGQGTQVTVSS | high polyreactivity
QVQLVESGGGLVQAGGSLRLSCAASGNTFYTNVMGWYRQAPGKERELVAAITQSGARTYYADSVKGRFTISRDNAKNTVYLQMNSLKPEDTAVYYCASEHYFYRDYPYEFWGQGTQVTVSS | high polyreactivity
QVQLVESGGGLVQAGGSLRLSCAASGSTYYYAMGWYIQEPGKEREFVAAISASGGSTYYADSVKGRFTISRDNAKNTVYLQMNSLKPDDTAGYYCTPLGYGYWGQGTQVTVSS | high polyreactivity
QVQLVESGGGLVQAGGSLRLSCAASGRIFWGYVMGWYRQAPGKERELVAAISSGGDTHYADSVKGRFTISRDNAKKTVYLQMNSLKPEDTAVYYCAARPNFTPYEYGYWGQGTQVTVSS | low polyreactivity
QVQLVESGGGLVQAGGSLRLSCAASGRIFPRNTMGWYRQAPGKERELVAAISQSGGRTYYADSVKGRFTISRDYAKNTVYLQMNSLKPEDTAVYYCAAREYRYDMYYWGQGTQVTVSS | high polyreactivity
QVQLVESGGDLVQAGGSLRLSCAASGRSYKYNDMGWYRQAPRKERELVADISSGVSTYYADSVKGRFTISRDNAKNTVYLQMNSLKPEDTAVYYFNAYSDGDEDYWGQGTQVTVSS | low polyreactivity
QVQLVESVGGLVQAGGSLRLSCAASGSTFSSYAMGWYRTAPGKERELVAALTASGGSTYYADSVKGRFTISRDNAKNTVYLQMNSLKPEDTAVYYCAAADVIFWLYYYWVQGTQVTVSS | low polyreactivity
QVQLVESGGGLVQAGGSLRLSCAASGFIFQRNAMGWYRQAPGKERELVAAISWTGGSTYYADSVKGRFTISRDNAKNTVYLQMNSLKPDVTAVYYCAKYGSGPYGYWGQGTQVTVSS | high polyreactivity
QVQLVESGGGLVQAGGRLRLSCAASGRTFGWYAMGWYRQAPGKERELVASITQRGGRTYYADSVKGRFTISRDNAKNTVYLQMNSLKPEDTAVYYCAAKTSPGMYYWGQGTQVTVSS | high polyreactivity
QVPLVESGGGLVQAGGSLRLSCAASGSIFRNYALGWYRQAPGKERELVAGITQRGGRTYYADSVKGRFTSSRDNAKNTVYLQLNSLKPEDTAVYYCAASYRGVPEYDSWGQGTQVTVSS | high polyreactivity
QVQLVESGGGLVQAGGSLRLSCAASRRTYWYNAMGWYRQSPGKERELVAAISRAGRTYYADSVKGRFTISRDNAKNTVYIQMNSLKPEDTAVYYCNVVLFGDSGNLQYYYWGQGTQVTVSS | high polyreactivity
QVQLVESGGGLVQAGGSLRLSCAASGRIFVYYAMGWYRQAPGKERELVATISSGGSTYYADSVKGRFTISRDNAKNTVYLQMNSLKPEDTAVYYCAADNVIRYLAYYYKGDYWGQGTQVTVSS | low polyreactivity
QVQLVESGGGLVQAGGSLRLSCAASGSIFWPNAMGWYRQAPGKERELVASITRAGSTNYADSVKGRFTISRDNAQNTVYLQMNSLKPEDTAVYYCAAYFWGGYNYWGQGTQVTVSS | low polyreactivity
QVQLVESGGGLVQAGGSLRLSCAASGRTFRGYAMGWYRPAPGKERELVAVISRGGRTNYADSVKGRFTISRDNAKNTVYLQMNSLKPEDTAVSYCAAEVAFIYSLRYDYWGQGTQVTVSS | high polyreactivity
QVQLVESGGGLVQAGGSLRLSCAASGGIYYRYAKGWYRQAPGKERDLVAVISRSGSTYYADSVKGRFTMSRDNAQNTVYLQMNSLKPEDTAVYYCAAYSRCRYGLVPYDYWGQGTQVTVSS | high polyreactivity
QVQLVESGGGLVQAGGSLRLSCAASGRTFSPNAMGWYRQAPGKERELVAAITRSDGRTYYADSVKGRFTISRDNAKNTVYLQMNSLKPEDTAVYYCAVDGYYPPAWYEYDYWGQGTQVTVSS | high polyreactivity
QVQLVESGGGLVQAGGSLRLSCAAYGLTFDSYAMGWYRQAPGKERELVAAISYGGGSTNFADSVKGRFTISRDNAKNTVYLQLNSLKPVDTAVYYCGAEPGYYDEYGYWGQGTQVTVSS | low polyreactivity
QVQLLESGGGLDQAGGSLRISCPASGSIFWSNAMGWYRQAPGKEREFVAALTWSGDNTYFADSVKGRFTISRENAKNTVDLQMNSLKPEDTAVYYCAAVFQNKAVGGVTSIYDCRGQGTQVTVSS | low polyreactivity
QVQLVESGGGLVHAGGSLRLSCAASGSTFDKYAMGWYRQAPGKERELVAAITWGGGSTYYADSVKGRFTISRDYAKNTVYLQMNSLKPEDTAVYYCNAYRVYAWIEYNYWGQGTQVTVSS | low polyreactivity
QVQLVESGGGLVQAGGSLRLSCAASGLIFKSNAMGWYRPAPGKERELVAAITRTGGSTYYADSVKGRFTISRDNAKNTVYLQMNSLKPEDTAVYYCAKVVGRWRSSWELDYWGQGTQVTVSS | high polyreactivity
QVQLVESGGGLVQAGASLRLSCAASGSTFKYYTMGWYRQAPGKERALVAAISFSGARTYYADSVKGRFTISRDNAKNTVYLQMNSLKPEDTAVYYCAKASSYSRRYEYWGQGTQVTVSS | high polyreactivity
QVQLVESGGGLVQAGGSLRLSCAASGSTFPLYAMGWYRQAPGKERELVAAITGGGGRTYYADSVKGRFTISRDNAKNTVYLQMNSLKPEDTAVYYCATDSFGYDWYWGQGTQVTVSS | low polyreactivity
QVQLVESGGGLVQAGGRLLLICAASGRIFIANAMGWYSKAPGKERELVATISRSGVSTNYADSVKVRFTISRDNAKNSVYLQMNSLKPEDTAVYYCADIRSGGQGQGYGYWGQVTQVTVSS | high polyreactivity
QVQLVESGGGLVQAGGSLRLSCAASGYTFCVYVMGWYRQAPGKERELVAAISGSTYYADSVKGRFTISRDNAKNTVYLQMNSLKPEDTAVYYCAAESYFFSPRTREKFDYWGQGTQVTVSS | low polyreactivity
